Target: the molecule itself
Test: crystal structure

B1: Arabidopsis thaliana PUMY K185A mutant, C-terminal His-tagged, as crystallized (enzyme, UniProt Q84K35 21-330, looked up)
chain: EANNKLRSLVKISPQVSEALSNGRAVVALESTIISHGMPYPQNLQTAKEVESIVRENGAIPATIAILNGVPCIGLSEEELERLASLGKSVQKTAGRDIANVVATRGNGATTVSATLFFASMVGIQVFVTGGIGGVHRHANHSMDISSDLTALGRTPIAVISAGVASILDIPKTLEYLETQEVYVAAYKSDEFPAFFTEKSGCKAPSRVNSPEDCARVIDANMKLNRQAGILFAIPIPKHHSAAGNLIESATQRALTEAREQNVTGNAETPFLLARVNELTGGTSLAANIALVKNNALIGSQIAVALSQLM
**Q.** With B1 as the protein, how does the “stoichiometry N” value read?
**A.** 3

From paper PMC10761123 (RNA Biology, 2023)
